“Also recorded” adds a separate entry of the source. Blank lines part the entries; values can stand above or below the molecule they belong to. No end group written: not given here. Me3 = trimethyl-lysine; Me2 = dimethyl-lysine
B1: SHL from Populus trichocarpa (PtSHL), wild type (natural protein)
chain: SMAKAKAPRRTLDSYTVKPINKTVKPGDCVLMRPSDPSKPSYVAKIERIESDGRGPNVRVRVRWYYRPEESIGGRRQFHGSKEVFLSDHYDTQSADTIEGKCMVHSFKNYTKLDAVGNDDFFCRFEYNSSTGAFNPDRVAVYCKCEMPYNPDDLMVQCEGCSDWFHPACIEMSAEEAKRLDHFFCENCSSEGQKKLQNSHNTRQSDAKAETKRRRR

How the values were obtained:
[1] = target: Arabidopsis SHORT LIFE (AtSHL), full length, tag removed (Arabidopsis) (UniProt Q9FEN9); experiment: ITC; Microcal PEAQ-ITC, 20 °C; 100 mM NaCl, 20 mM Tris-HCl pH 8.0; protein titrated by peptide
Arabidopsis SHORT LIFE (AtSHL), full length, tag removed (Arabidopsis), sequence (Q9FEN9 whole entry): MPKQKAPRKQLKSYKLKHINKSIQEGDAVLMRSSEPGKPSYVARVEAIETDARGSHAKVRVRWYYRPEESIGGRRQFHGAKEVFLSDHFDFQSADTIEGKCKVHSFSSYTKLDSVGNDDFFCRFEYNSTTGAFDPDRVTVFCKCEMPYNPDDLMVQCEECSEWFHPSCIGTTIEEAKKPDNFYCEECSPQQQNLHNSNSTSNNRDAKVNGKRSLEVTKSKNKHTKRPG

[2] = target: PtSHL Y41A; experiment: ITC, PtSHL Y41A; set-up: species or system Populus trichocarpa; conditions: 20 °C, pH 8.0, NDB, no detectable binding
Protocol: (§1) The full-length AtSHL was cloned into a pET-Sumo vector to fuse a hexahistidine-sumo tag to the target protein. The plasmids were transformed into Escherichia coli strain BL21(DE3) RIL (Stratagene). The protein expression was induced by adding IPTG to a final concentration of 0.2 mM upon the OD600 of cell culture reaching to 0.7, followed by overnight induction at 20 °C. The recombinant protein was purified using a HisTrap column (GE Healthcare). The hexahistidine-sumo tag was cleaved by ulp1 protease and removed by a second step HisTrap column. The AtSHL protein was further purified using a Superdex G200 column (GE Healcare). The PtSHL was cloned, expressed, and purified using the same strategy as AtSHL. All mutant versions of SHL were generated using a PCR based method and expressed and purified using the same protocol as wild type SHL protein. The peptides were purchased from the GL Biochem Company (Shanghai).
(§2) The interaction between SHL and histone peptides was monitored on a Microcal PEAQ-ITC instrument (Malvern) at 20 °C. An additional artificial tyrosine residue was added to the C-terminus of the peptide in the ITC experiment for accurately measuring the concentration of peptide by OD280. The protein was dialyzed against a buffer of 100 mM NaCl and 20 mM Tris-HCl, pH 8.0 for 3 h and the lyophilized peptides were dissolved into the same buffer. […]

[3] = target: PtSHL Y65A; experiment: ITC, PtSHL Y65A; set-up: species or system Populus trichocarpa; conditions: 20 °C, pH 8.0, NDB, no detectable binding
Protocol: as §1, §2

[4] = test system: full-length AtSHL; experiment: Histone peptide microarray, full-length AtSHL; type: binding, Arabidopsis thaliana; conditions: 500 nM GST-tagged SHL, 50 mM HEPES, pH 7.5, 50 mM NaCl, RT, 2 h; anti-GST, fluorescence 635 nm; average of three replicate spots
Protocol: Peptide microarray assay was performed as following a previous study. Specifically, the peptide array slide was blocked with blocking solution (1 × PBS, 0.05% Tween-20 pH 7.4, 1% BSA) at 4 °C overnight. After washing three times with 1 ml TTBS buffer (10 mM Tris-HCl, pH 7.5, 150 mM NaCl, 0.05% Tween-20), the slide was incubated with 500 nM GST-tagged recombinant SHL in 1 ml binding buffer (50 mM HEPES, pH 7.5, 50 mM NaCl, 5% glycerol, 0.4% BSA, 2 mM DTT) at RT for 2 h. The slide was then washed with TTBS three times and incubated with an anti-GST antibody (Thermo Fisher, CAB4169, 1:3000 dilution) in TBS with 1% BSA for 1 h at RT. After washing with TTBS three times, the slide was incubated with an anti-rabbit IRDye 650 secondary antibody (LI-COR, P/N 926-65020, 1:5000 dilution) in 1 ml TBS buffer with 1% BSA for 1 h. The slide was washed with TTBS three times, dried by centrifugation, and imaged at dual wavelengths of 532 and 635 nm on Axon GenePix 4000B (Molecular Devices). The laser power was set to 100%, with automatic gain adjustment (0.05% saturation tolerance) for dual photomultipliers. […] Signal intensities were quantified by GenePix Pro 6.1 software (Molecular Devices). […] For each peptide species, an average was calculated from three replicate spots. […]

[5] = target: T1, PtSHL + H3K4me3 (Populus trichocarpa, UniProt B9H0V2); experiment: Competitive ITC, PtSHL pre-saturated with 2-fold excess H3(1-15)K4me3; conditions: ITC binding stoichiometry
T1 sequence (B9H0V2 1-215): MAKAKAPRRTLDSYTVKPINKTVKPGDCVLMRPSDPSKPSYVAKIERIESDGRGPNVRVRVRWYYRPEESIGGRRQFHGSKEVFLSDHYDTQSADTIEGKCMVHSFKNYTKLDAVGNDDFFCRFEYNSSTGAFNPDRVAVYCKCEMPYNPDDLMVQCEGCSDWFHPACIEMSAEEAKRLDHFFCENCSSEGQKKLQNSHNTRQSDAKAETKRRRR
Protocol: To further investigate the binding mechanism of H3K4me3 and H3K27me3 by the two domains of SHL, we performed competitive binding assays.
The interaction between SHL and histone peptides was monitored on a Microcal PEAQ-ITC instrument (Malvern) at 20 °C. An additional artificial tyrosine residue was added to the C-terminus of the peptide in the ITC experiment for accurately measuring the concentration of peptide by OD280. The protein was dialyzed against a buffer of 100 mM NaCl and 20 mM Tris-HCl, pH 8.0 for 3 h and the lyophilized peptides were dissolved into the same buffer. The titration data were fit using the program Origin 7.0.

[6] = target: PtSHL W63A; experiment: ITC, PtSHL W63A; set-up: species or system Populus trichocarpa; conditions: 20 °C, pH 8.0, NDB, no detectable binding
Protocol: as §1, §2

[7] = target: PtSHL; experiment: ITC, PtSHL (wild type) with histone peptides; set-up: species or system Populus trichocarpa; conditions: Microcal PEAQ-ITC, 20 °C, 100 mM NaCl, 20 mM Tris-HCl, pH 8.0, peptide with additional C-terminal tyrosine, PtSHL WT, NDB, no detectable binding
Protocol: as §1, §2

[8] = target: PtSHL D90A; experiment: ITC, PtSHL D90A; set-up: species or system Populus trichocarpa; conditions: 20 °C, pH 8.0, NDB, no detectable binding
Protocol: as §1, §2

[9] = test system: full-length AtSHL; experiment: Histone peptide pulldown, full-length AtSHL; type: binding, Arabidopsis thaliana; conditions: biotinylated histone peptides, 2 μg GST-tagged SHL, 50 mM Tris-HCl, pH 8.0, 300 mM NaCl, 3 h at 4 °C; anti-GST immunoblot
Protocol: The […] biotinylated histone peptides were first incubated with 62.5 μl magnetic streptavidin bead slurry (NEB) pre-washed with 1 ml peptide binding buffer (50 mM Tris-HCl, pH 8.0, 300 mM NaCl, 0.1% Nonidet P-40) for 1 h at 4 °C. The peptide-bound beads were washed twice with 1 ml of peptide binding buffer and then incubated with 2 μg GST-tagged SHL proteins in the peptide binding buffer for 3 h at 4 °C. After washing three times with binding buffer, protein-bead complex was boiled in 1XSDS loading buffer (50 mM Tris-HCl, pH 6.8, 2% sodium dodecyl sulfate, 0.01% bromophenol blue, 2 mM dithiothreitol and 2 mM β-mercaptoethanol), subjected to SDS-PAGE gel, and detected with an anti-GST antibody (CAB4169, Thermo Fisher, 1:3000). The raw images of the western blots can be found in Supplementary Fig. 6a.

[10] = target: PtSHL H88A; experiment: ITC, PtSHL H88A; set-up: species or system Populus trichocarpa; conditions: 20 °C, pH 8.0, NDB, no detectable binding
Protocol: as §1, §2

[11] = target: SHL from Populus trichocarpa (PtSHL), wild type (Populus trichocarpa); experiment: ITC; Microcal PEAQ-ITC, 20 °C; 100 mM NaCl, 20 mM Tris-HCl pH 8.0; protein titrated by peptide
[12] = target: SHL from Populus trichocarpa (PtSHL), wild type (Populus trichocarpa); experiment: ITC; PtSHL pre-saturated with 2-fold excess H3(1-15)K4me3 peptide, titrated by H3(20-36)K27me3 peptide; 20 °C, 100 mM NaCl, 20 mM Tris-HCl pH 8.0
[13] = target: SHL from Populus trichocarpa (PtSHL), wild type (Populus trichocarpa); experiment: ITC; PtSHL pre-saturated with 2-fold excess H3(20-36)K27me3 peptide, titrated by H3(1-15)K4me3 peptide; 20 °C, 100 mM NaCl, 20 mM Tris-HCl pH 8.0
[14] = target: B1; experiment: ITC
[15] = target: T2, PtSHL Y148A (Populus trichocarpa); experiment: ITC
T2 chain: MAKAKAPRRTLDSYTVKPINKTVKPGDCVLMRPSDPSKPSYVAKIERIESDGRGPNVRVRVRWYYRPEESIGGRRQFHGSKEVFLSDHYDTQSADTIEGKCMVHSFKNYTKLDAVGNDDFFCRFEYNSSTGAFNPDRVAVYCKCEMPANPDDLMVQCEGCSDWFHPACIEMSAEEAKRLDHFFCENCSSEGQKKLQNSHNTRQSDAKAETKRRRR

[16] = target: T3, PtSHL Q156A (Populus trichocarpa); experiment: ITC
T3 chain: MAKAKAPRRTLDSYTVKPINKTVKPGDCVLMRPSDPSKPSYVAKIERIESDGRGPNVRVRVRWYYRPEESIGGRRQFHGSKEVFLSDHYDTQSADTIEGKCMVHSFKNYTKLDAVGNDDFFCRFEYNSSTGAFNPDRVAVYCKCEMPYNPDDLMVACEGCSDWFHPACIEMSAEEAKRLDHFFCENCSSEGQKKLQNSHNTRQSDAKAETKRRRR

[17] = target: T4, H3K4me2 (Arabidopsis thaliana); experiment: ITC
T4 chain: ARTK(Me2)QTARKSTGGKAY

[18] = target: T5, H3K4me1 (Arabidopsis thaliana); experiment: ITC
T5 chain: ARTK(Me)QTARKSTGGKAY

Molecule: CC(C)C[C@H](N)C(=O)N[C@@H](C)C(=O)N[C@H](C(=O)N[C@@H](CCCCN)C(=O)N[C@@H](C)C(=O)N[C@@H](C)C(=O)N[C@@H](CCCNC(=N)N)C(=O)N[C@@H](CCCC[N+](C)(C)C)C(=O)N[C@@H](CO)C(=O)N[C@@H](C)C(=O)N1CCC[C@H]1C(=O)N[C@@H](C)C(=O)N[C@H](C(=O)NCC(=O)NCC(=O)N[C@H](C(=O)N[C@@H](CCCCN)C(=O)N[C@@H](Cc1ccc(O)cc1)C(=O)O)C(C)C)[C@@H](C)O)[C@@H](C)O [H3K27me3]
Kd [2]: NDB and abolished | Kd [3]: NDB and abolished | binding on histone peptide microarray [4]: preferentially binds; also recorded: strong binding affinity | N-value [5]: 0.818 | Kd [6]: NDB and abolished | Kd [7]: 21.3 µM | Kd [8]: NDB and abolished | binding in histone peptide pulldown [9]: capable of binding | Kd [10]: NDB and abolished

Molecule: H3(1-35)K4me3K27me3 peptide with an additional C-terminal tyrosine (ITC)
Kd [11]: 16.9 µM | stoichiometry N [11]: 1.17

Molecule: H3(1-15)K4me3 peptide with an additional C-terminal tyrosine (ITC)
Kd [11]: 20.6 µM | Kd [13]: 27.6 µM

Molecule: LATKAARK(Me2)SAPATGGVKY [H3K27me2 peptide with an additional C-terminal tyrosine (ITC)]
Kd [14]: 28.9 µM

Molecule: ARTK(Me3)QTARKSTGGKAY [H3(1-15)K4me3 peptide with an additional C-terminal tyrosine (ITC)]
Kd [15]: 44 µM | Kd [16]: 66.1 µM

Molecule: B1
Kd [17]: 23.9 µM | Kd [18]: 67.1 µM

The remaining lines, values ahead:

Kd [1]: 78.3 µM
Molecule: H3K27me1 peptide with an additional C-terminal tyrosine (ITC)

Kd [1]: 15.1 µM | Kd [11]: 21.3 µM | Kd [12]: 18.7 µM
Molecule: H3(20-36)K27me3 peptide with an additional C-terminal tyrosine (ITC)

Kd [1]: 30.8 µM
Molecule: H3K27me2 peptide with an additional C-terminal tyrosine (ITC)

Kd [14]: 58.1 µM
Molecule: LATKAARK(Me)SAPATGGVKY [H3K27me1 peptide with an additional C-terminal tyrosine (ITC)]

— PMC6013494, “Dual recognition of H3K4me3 and H3K27me3 by a plant histone reader SHL” (Nature Communications, 2018)
